# In patent US20160326237A1 (ANNEXON, published 2016):
# B1: murine anti-human C1q monoclonal antibody M1 (antibody)
# chain 1: QVQLQQPGAELVKPGASVKLSCKSSGYHFTSYWMHWVKQRPGQGLEWIGVIHPNSGSINYNEKFESKATLTVDKSSSTAYMQLSSLTSEDSAVYYCAGERDSTEVLPMDYWGQGTSVTVSS
# chain 2: DVQITQSPSYLAASPGETITINCRASKSINKYLAWYQEKPGKTNKLLIYSGSTLQSGIPSRFSGSGSGTDFTLTISSLEPEDFAMYYCQQHNEYPLTFGAGTKLELK
# What was measured:
# mouse C1q [1] = biological target: T1, mouse C1q (mouse, UniProt P14106 26-253); test: BLI (OCTET), C1q immobilised, antibody 2.0 ug/ml
# human C1q [2] = biological target: T2, human C1q (human, UniProt P02745 23-245; P02746 28-253; P02747 29-245); test: BLI (OCTET), C1q immobilised, antibody 2.0 ug/ml
# T2 construct: Native C1q (about 460 kDa) holds several copies of each chain; also called hC1q; C1Q antigen
# mouse C1q [3] = biological target: T1, mouse C1q; test: BLI (OCTET)
# human C1q [4] = biological target: T2, human C1q; test: BLI (OCTET)
# T1 sequence (chain, as listed by the source, chain 1 of 3): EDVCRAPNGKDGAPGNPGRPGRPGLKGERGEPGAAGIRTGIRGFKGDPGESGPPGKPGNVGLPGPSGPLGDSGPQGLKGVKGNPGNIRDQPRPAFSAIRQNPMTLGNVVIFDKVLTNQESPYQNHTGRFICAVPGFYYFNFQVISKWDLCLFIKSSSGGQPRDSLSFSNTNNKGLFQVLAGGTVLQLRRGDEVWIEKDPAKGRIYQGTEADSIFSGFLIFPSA
# T1 sequence (P14106 26-253, chain 2 of 3): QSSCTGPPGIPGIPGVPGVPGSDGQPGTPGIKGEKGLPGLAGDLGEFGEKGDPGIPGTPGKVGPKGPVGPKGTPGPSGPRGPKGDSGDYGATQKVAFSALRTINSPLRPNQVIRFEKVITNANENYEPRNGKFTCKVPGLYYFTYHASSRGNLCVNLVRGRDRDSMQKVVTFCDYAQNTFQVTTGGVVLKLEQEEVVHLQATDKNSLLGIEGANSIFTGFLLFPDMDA
# T1 sequence (chain, as listed by the source, chain 3 of 3): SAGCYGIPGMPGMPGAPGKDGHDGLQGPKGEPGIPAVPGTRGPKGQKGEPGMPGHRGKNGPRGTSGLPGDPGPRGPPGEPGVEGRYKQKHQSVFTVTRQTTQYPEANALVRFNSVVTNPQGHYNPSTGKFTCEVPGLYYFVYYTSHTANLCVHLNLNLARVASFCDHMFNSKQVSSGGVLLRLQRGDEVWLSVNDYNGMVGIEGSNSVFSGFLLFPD
# T2 sequence (P02745 23-245 limits assumed, chain 1 of 3): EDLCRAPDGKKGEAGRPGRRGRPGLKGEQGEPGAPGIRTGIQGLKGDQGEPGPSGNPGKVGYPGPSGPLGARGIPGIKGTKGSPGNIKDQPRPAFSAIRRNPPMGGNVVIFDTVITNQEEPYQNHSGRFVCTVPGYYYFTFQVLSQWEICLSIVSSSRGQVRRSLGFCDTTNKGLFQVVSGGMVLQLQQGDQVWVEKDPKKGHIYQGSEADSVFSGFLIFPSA
# T2 sequence (P02746 28-253 limits assumed, chain 2 of 3): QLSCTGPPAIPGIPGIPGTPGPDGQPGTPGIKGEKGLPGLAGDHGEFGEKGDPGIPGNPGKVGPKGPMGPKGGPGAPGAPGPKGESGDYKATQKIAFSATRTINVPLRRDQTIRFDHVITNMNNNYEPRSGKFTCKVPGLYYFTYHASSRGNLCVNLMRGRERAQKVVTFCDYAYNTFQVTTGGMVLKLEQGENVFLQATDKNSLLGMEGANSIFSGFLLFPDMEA
# T2 sequence (P02747 29-245 limits assumed, chain 3 of 3): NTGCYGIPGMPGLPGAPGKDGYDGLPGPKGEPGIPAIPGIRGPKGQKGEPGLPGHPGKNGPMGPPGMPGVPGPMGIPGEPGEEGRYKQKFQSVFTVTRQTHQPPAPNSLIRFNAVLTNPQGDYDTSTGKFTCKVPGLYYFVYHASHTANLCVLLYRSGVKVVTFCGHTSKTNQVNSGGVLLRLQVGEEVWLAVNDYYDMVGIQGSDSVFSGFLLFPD
binder,measurement,setting,value
B1,Kd,mouse C1q [1],0.0323 nM
same,koff,mouse C1q [1],5.84e-05 s⁻¹
same,kon,mouse C1q [1],1.81e+06 M⁻¹ s⁻¹
same,Kd,human C1q [2],0.0128 nM
same,koff,human C1q [2],6.31e-05 s⁻¹
same,kon,human C1q [2],5.18e+06 M⁻¹ s⁻¹
same,Kd,mouse C1q [3],< 0.1 nM
same,Kd,human C1q [4],< 0.1 nM
